Measured values taken from article PMC4731814.
Values belong to the substance of their own block, whether it stands above or below them.

Legend:
[1] = biological target: tricellulin second extracellular loop fragment (human) (UniProt Q8N4S9); assay: SPR; BIAcore X; tricellulin proteins amine-coupled on a CM5 chip; human PLG as analyte at 62.5-1000 nM; HBS-P buffer pH 7.4, 0.15 M NaCl, 37 °C, 30 μl/min; 1:1 Langmuir binding model
[2] = biological target: tricellulin first extracellular loop fragment K217A K252A (human) (UniProt Q8N4S9); assay: as above
[3] = biological target: tricellulin first extracellular loop fragment K217A (human) (UniProt Q8N4S9); assay: as above
[4] = biological target: tricellulin first extracellular loop fragment K252A (human) (UniProt Q8N4S9); assay: as above
[5] = biological target: tricellulin first extracellular loop fragment, wild type (human) (UniProt Q8N4S9); assay: as above
human plasminogen = assay: ELISA; conditions: bacteria OD600 = 0.6 bound to microtiter plates; 1 μM human PLG; parent: est. 0.29; read off a plot

- Kd [1]: 1.27 µM
- koff [1]: 0.214 s⁻¹
- kon [1]: 169000 M⁻¹ s⁻¹
- Kd [2]: 1.03 µM
- koff [2]: 0.0742 s⁻¹
- kon [2]: 72400 M⁻¹ s⁻¹
- Kd [3]: 0.183 µM
- koff [3]: 0.0298 s⁻¹
- kon [3]: 165000 M⁻¹ s⁻¹
- Kd [4]: 3.13 µM
- koff [4]: 0.0184 s⁻¹
- kon [4]: 5890 M⁻¹ s⁻¹
- Kd [5]: 0.0515 µM
- koff [5]: 7.13 s⁻¹
- kon [5]: 1.39e+08 M⁻¹ s⁻¹
Substance: human plasminogen (natural protein)

Substance: streptococcal surface enolase on GAS strain NIH35 (wild type) (from UniProt P69949) K252L; K255L
- response (human plasminogen): 0.23 A450

Substance: streptococcal surface enolase on GAS strain NIH35 (wild type) (from UniProt P69949) K252L; K255L; K434L; K435L
- response (human plasminogen): 0.17 A450

Substance: streptococcal surface enolase on GAS strain NIH35 (wild type) (from UniProt P69949) K434L; K435L
- response (human plasminogen): 0.3 A450
